# According to article PMC6297234, “aPKC controls endothelial growth by modulating c-Myc via FoxO1 DNA-binding ability”:
# B1: FoxO DBE duplex (dsDNA)
# DNA 1: CAAAATGTAAACAAGA
# DNA 2: TCTTGTTTACATTTTG
# Target: GST-FoxO1 DBD (Homo sapiens, UniProt Q12778 151-266)
# Test: EMSA; 1 µM protein, 1 nM DNA, 1 ng/mL poly dI-dC; 20 mM Tris pH 8.0, 50 mM KCl, 5% glycerol, 2 mM DTT, 0.2 mM EDTA, 2 mM MgCl2, 0.1 mg/mL BSA, 1 ng/mL poly dI-dC; RT 30 min; 6% gel in 0.5X TBE at 4 °C
# Conditions: protein: recombinant; tags: GST (pDEST15, N-terminal); blunt
# GST-FoxO1 DBD, sequence (Q12778 151-266): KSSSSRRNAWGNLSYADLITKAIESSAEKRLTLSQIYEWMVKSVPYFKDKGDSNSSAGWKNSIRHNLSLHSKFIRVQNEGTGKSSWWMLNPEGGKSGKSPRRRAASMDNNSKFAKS
binder,measurement,value
B1,binding result,binds
